In PMC6698652, “Boundaries of eliminated heterochromatin of Tetrahymena are positioned by the DNA-binding protein Ltl1”:

T1: MBP-Ltl1 (Tetrahymena thermophila) (UniProt I7MGR7)
T1 sequence: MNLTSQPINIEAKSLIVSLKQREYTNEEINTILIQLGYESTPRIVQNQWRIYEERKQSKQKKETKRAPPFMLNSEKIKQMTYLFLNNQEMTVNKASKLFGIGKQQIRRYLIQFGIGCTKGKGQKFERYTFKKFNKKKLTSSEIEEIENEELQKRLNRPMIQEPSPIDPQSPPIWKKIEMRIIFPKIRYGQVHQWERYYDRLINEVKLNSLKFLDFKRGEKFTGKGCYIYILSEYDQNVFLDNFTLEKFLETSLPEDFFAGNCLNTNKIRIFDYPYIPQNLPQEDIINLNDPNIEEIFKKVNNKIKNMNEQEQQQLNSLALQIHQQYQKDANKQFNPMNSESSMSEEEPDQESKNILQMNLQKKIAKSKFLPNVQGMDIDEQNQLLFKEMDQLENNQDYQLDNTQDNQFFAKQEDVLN

T2: MBP-Ltl1 (Tetrahymena thermophila, UniProt I7MGR7 1-417)
T2 sequence: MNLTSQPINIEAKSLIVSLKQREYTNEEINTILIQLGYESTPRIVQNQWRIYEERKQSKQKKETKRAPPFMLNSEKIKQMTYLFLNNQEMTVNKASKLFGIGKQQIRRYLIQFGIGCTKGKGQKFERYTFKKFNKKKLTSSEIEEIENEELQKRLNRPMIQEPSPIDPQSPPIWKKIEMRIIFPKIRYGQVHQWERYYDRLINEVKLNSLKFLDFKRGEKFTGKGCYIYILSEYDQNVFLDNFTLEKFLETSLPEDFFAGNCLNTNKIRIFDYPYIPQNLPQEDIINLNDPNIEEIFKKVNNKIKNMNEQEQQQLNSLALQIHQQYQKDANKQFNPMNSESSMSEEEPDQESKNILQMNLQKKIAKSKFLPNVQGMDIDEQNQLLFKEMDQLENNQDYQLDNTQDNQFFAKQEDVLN


What was measured:
[1] = target: T1, MBP-Ltl1 (Tetrahymena thermophila); assay: EMSA; conditions: EMSA as in Carle et al. (ref 20), binding buffer and temperature not given; probes annealed in 10 mM Tris pH 7.5, 5% glycerol, 100 mM KCl; protein dialyzed in …
MBP-Ltl1 [2] = target: T2, MBP-Ltl1; assay: EMSA; majority of probe in G-quadruplex form; EMSA as in Carle et al. (ref 20), binding buffer and temperature not given; probes annealed in 10 mM Tris pH 7.5, 5% glycerol, 100 mM KCl; protein dialyzed in 50 mM Tris pH 7.5, 100 mM KCl, 10% glycerol, 1 mM MnSO4, 1 mM MgCl2, 1 mM ZnSO4; conditions: protein: recombinant; MBP (pMAL fusion); label: 5' 32P
MBP-Ltl1 [3] = target: T2, MBP-Ltl1; assay: EMSA; EMSA as in Carle et al. (ref 20), binding buffer and temperature not given; probes annealed in 10 mM Tris pH 7.5, 5% glycerol, 100 mM KCl; protein dialyzed in 50 mM Tris pH 7.5, 100 mM KCl, 10% glycerol, 1 mM MnSO4, 1 mM MgCl2, 1 mM ZnSO4; conditions: protein: recombinant; MBP (pMAL fusion); label: 5' 32P; blunt

| Molecule | Kd [1] | Kd (MBP-Ltl1 [3]) | also measured |
| --- | --- | --- | --- |
| GAAATTAATATAATTATAATTTTAAACAGTGTAAAACCCAAAAAGCTA (double strand) [R IES left flank -40/-88 ds (R_IES_EMSA_probe2)] | 350 nM |  |  |
| TTATTTGATTAATTAATTTTATTTACGGTAAAGGTTTATATATTAAGGCCACAATATAC (double strand) [D IES left flank -30/-88 ds (IESD_EMSA_probe1)] | 350 nM |  |  |
| TTTATTAATCAAAAAGGGGGTAAATAATAA (structured_DNA) [M IES left flank G4 (M1_A5G5_FW)] |  |  | Kd (MBP-Ltl1 [2]): ~350 nM |
| D IES right flank -67/-120 (IESD_EMSA_R-67/120) (dsDNA) DNA 1: TTTGAATCCTAAGATTCTACTTTATTTAGCATTTTTTATATTAAGTAATTTA DNA 2: TAAATTACTTAATATAAAAAATGCTAAATAAAGTAGAATCTTAGGATTCAAA |  | ~42.5 nM |  |
| D IES left flank -70/-120 (IESD_EMSA_L-70/120) (dsDNA) DNA 1: AAAATTTATATATATTTGAATCCTAAGATTCTGTCTTATTTGATTAATTAA DNA 2: TTAATTAATCAAATAAGACAGAATCTTAGGATTCAAATATATATAAATTTT |  | ~43 nM |  |
